# Reference: US20130251708A1 (ABGENOMICS COOPERATIEF U A, published 2013)
# T1: human PSGL-1 on activated primary human CD4+ T cells (human, UniProt Q14242 42-412)
# T1 construct: also called P-selectin glycoprotein ligand-1; SELPLG
# T1 sequence: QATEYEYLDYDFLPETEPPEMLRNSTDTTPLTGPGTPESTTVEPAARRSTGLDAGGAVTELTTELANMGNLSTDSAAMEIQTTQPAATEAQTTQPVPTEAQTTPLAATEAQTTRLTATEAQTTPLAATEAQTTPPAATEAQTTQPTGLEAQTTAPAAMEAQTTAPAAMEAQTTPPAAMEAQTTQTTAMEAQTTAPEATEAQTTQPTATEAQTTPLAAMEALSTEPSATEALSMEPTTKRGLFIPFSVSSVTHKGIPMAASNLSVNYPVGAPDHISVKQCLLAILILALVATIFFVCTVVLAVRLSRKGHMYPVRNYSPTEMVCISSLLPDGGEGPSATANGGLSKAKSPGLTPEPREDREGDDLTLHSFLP
# Experiments:
# [1] = biological target: T1, human PSGL-1 on activated primary human …; experiment: flow cytometry on activated human CD4+ T cells, mean +/- SEM of 4 donors
# Experimental: (§1) Anti-lysozyme IgG4, h15A7 and 15A7H antibody binding affinity to activated CD4+ T cells were determined by plotting antibody concentration versus mean fluorescence index (MFI) for each sample duplicate using XLfit (model: dose response one site, 205). EC50 values were determined for each binding curve.
# Using flow cytometry, the binding of 15A7H to activated human CD4+ T-cells was determined.
# (§2) EC50 values from 4 donors were used to calculate Mean+/−SEM.
# [2] = biological target: T1, human PSGL-1 on activated primary human …; experiment: flow cytometry on activated human CD4+ T cells, mean +/- SEM
# Experimental: as §1, §2
Binder,EC50 [1],EC50 [2]
"15A7H (antibody, human IgG4 S228P, kappa, Humanized IgG4 kappa antibody with the Ser228->Pro228 (EU index) hinge mutation, made in CHO-DG44 cells; also called hinge mutant of h15A7; 15A7H antibody) heavy: not shown light: DIQMTQSPSSLSASVGDRVTITCRSSQSIVHNDGNTYFEWYQQKPGKAPKLLIYKVSNRFSGVPSRFSGSGSGTHFTLTISSLQPEDFATYYCFQGSYVPLTFGQGTKVEIKRTVAAPSVFIFPPSDEQLKSGTASVVCLLNNFYPREAKVQWKVDNALQSGNSQESVTEQDSKDSTYSLSSTLTLSKADYEKHKVYACEVTHQGLSSPVTKSFNRGEC",0.22 nM,
"h15A7 (antibody, human IgG4, kappa, Parent IgG4 kappa antibody with the wild-type hinge; also called Antibody h15A7) heavy: not shown light: DIQMTQSPSSLSASVGDRVTITCRSSQSIVHNDGNTYFEWYQQKPGKAPKLLIYKVSNRFSGVPSRFSGSGSGTHFTLTISSLQPEDFATYYCFQGSYVPLTFGQGTKVEIKRTVAAPSVFIFPPSDEQLKSGTASVVCLLNNFYPREAKVQWKVDNALQSGNSQESVTEQDSKDSTYSLSSTLTLSKADYEKHKVYACEVTHQGLSSPVTKSFNRGEC",,0.27 nM
